# Experimental data as given in the supplement of paper PMC11780869.
# System: Bacillus subtilis
# Test: cleaved RNA product abundance (RNA/gDNA barcode ratio) relative to median wild-type variant (ratio to wild type); higher = more accumulation of the downstream cleavage product
# Outline: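 B. subtilis strains with chromosomally integrated reporter mRNAs (truncated aprE or tetM) holding barcoded, mutagenized RNase Y cleavage-site windows grew in LB at 37°C from OD600 0.0003 to 0.3. Cleaved product abundance is each construct's RNA:gDNA barcode ratio, scaled to the median construct with the unmutated site. It came from sequencing barcodes of gel-selected, reverse-transcribed cleaved RNA and of genomic DNA.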
# [1] = experiment (reporter, strain, medium): exp 2b: truncated aprE reporter, strain BJT200, cleavage site: cggR-gapA (positions -7 to +36 mutated)
# [2] = experiment (reporter, strain, medium): exp 4a: truncated aprE reporter, strain BJT201 with 2% xylose (RNase J1 expressed), cleavage site: cggR-gapA (positions -7 to +36 mutated)
# [3] = experiment (reporter, strain, medium): exp 8a: truncated aprE reporter, strain BJT201 with 2% xylose (RNase J1 expressed), cleavage site: glnRA (positions -5 to +31 mutated)
# [4] = experiment (reporter, strain, medium): exp 6: tetM reporter, strain 168, cleavage site: cggR-gapA (positions -7 to +36 mutated)
Sequence,cleaved RNA product abundance [2],also measured
ACAGACGAAGGAGCCGCAAAGAAGTTATTAAGGGATGAATACTCCCTCAATATAAAAATCTCTCACTTATTTAAA,0.819,cleaved RNA product abundance [1]: 0.511
ACAGACGAAGGAGCCGCAAAGAAGTTATTAAGGAATGAATAATCCCTCCATATAAATATCTCTCACTTATTTAAA,0.0857,
ACAGACGAAGGAGCCGCATAGAAGTTATTAAGGAATGAATAATTCCTCAATATAAATATCTCTCACTTATTTAAA,0.893,
ACAGACGAAGGAGCCGCAAAGAAGTTATTAAGGGCTGAATAATTCCTCAATATAAATATCTCTCACTTATTTAAA,,cleaved RNA product abundance [1]: 0.0668
CGACATGTCCCGCTTCTTTCATTAATTCGTTAGCAACTGTTTTGCTATATACATTTAGCTTTTAAGAGGAGGAAT,,cleaved RNA product abundance [3]: 1.88
ACAGACGAAGGAGCCGCAAAGACGTTCTTAAGGGATGAATAATCCCTCAATATAAATATCTCTCACTTATTTAAA,0.231,
ACAGACGAAGGAGCCGCAAAGTAGTTATTAAGGGATTAATAATCCCTCAATATAAATATCTCTCACTTATTTAAA,1.14,
CGACATGTCCCGCTTCTTTCATTAATCCGTTATCAACTGCTTTGCTATATACATTTACCTTTTAAGAGGAGGAAT,,cleaved RNA product abundance [3]: 0.114
ACAGACGAAGGAGCCGCAAAGAAGTTATTAAAGGACGAATAATCCCTCAATATAAATATCTCTCACTTATTTAAA,0.103,
CGACATGTCCCGCTTCTTTCATTAATCCGTTAGCAACTGTTTTGCTATATACATATACCATTTAAGAGGAGGAAT,,cleaved RNA product abundance [3]: 0.971
CGACATGTCCCGCTTCTTTCATTAAACCGTTAGCAACTGTTTAACTATATACATTTACCTTTTAAGAGGAGGAAT,,cleaved RNA product abundance [3]: 0.444
ACAGACGAAGGAGCCGCAAAGAAGTTATTAAGGGATGAATAATCCCTACATATAAATATCTCTCACTTATTTAAA,0.203,
ACAGACGAAGGAGCCGCAAAGAAGTTATCAAGGGATGAATAATACCTCAATATAAATATCTCTCACTTATTTAAA,0.132,cleaved RNA product abundance [1]: 0.149
ACAGACGAAGGAGCCGCAAAGAAGTAATTCAGGGATGAATAATCCCTCAATATAAATATCTCTCACTTATTTAAA,0.325,
ACAGACGAAGGAGCCGCAAAGAAGTTATAAAGGGGTGAATAATCCCTCAATATAAATATCTCTCACTTATTTAAA,0.422,
CGACATGTCCCGCTTCTTTCATTAATCTGTTAGCAACTGTTTTGCTATATACATTTACATTTTAAGAGGAGGAAT,,cleaved RNA product abundance [3]: 1.2
ACAGACGAAGGAGCCGCAAAGAAGTTATTAAGGGATAACTAATCCCTCAATATAAATATCTCTCACTTATTTAAA,0.57,
ACAGACGAAGGAGCCGCAAAGAAGTTATTAAGGAATGAATACTCCCTCAATATAAATATCTCTCACTTATTTAAA,0.106,cleaved RNA product abundance [1]: 0.116
ACAGACGAAGGAGCCGCAAAGAAGTTATTAAGGGATGAATAATCCCTCACTATAAATAACTCTCACTTATTTAAA,0.285,cleaved RNA product abundance [1]: 0.175
ACAGACGAAGGAGCCGCAAAGAAGTTACTAAGGGATGAATAATCCCTCAATATAAATATCTCTCACTTATTTAAA,0.314,cleaved RNA product abundance [1]: 0.219; cleaved RNA product abundance [4]: 0.275
ACAGACGAAGGAGCCGCAAAGAAGTTATTAAGGGATGTAAAATCCCTCAATATAAATATCTCTCACTTATTTAAA,1.04,
ACAGACGAAGGAGCCGCAAACAATTTATTAAGAGATGAATAATCCCTCAATATAAATATCTCTCACTTATTTAAA,0.128,
CGACATGTCCCGCTTCTTTCATTAATCCGTTAGCAACTGTTTTGCTATATAGATTTACCTTTTAAGAGGAGGAAT,,cleaved RNA product abundance [3]: 1.11
ACAGACGAAGGAGCCGCAACGAAGTTATTAAGGGATGAATAATCCCTCACTATAAATATCTCTCACTTATTTAAA,0.435,
CGACATGTCCCGCTTCTTTCATTAATCCGTTATCAACTGTTTTGCTATATACATTTACCATTTAAGAGGAGGAAT,,cleaved RNA product abundance [3]: 0.269
ACAGACGAAGGAGCCGCAAAGAATTTATTAAGTGATGAATAATCCCTCAATATAAATATCTCTCACTTATTTAAA,0.118,cleaved RNA product abundance [1]: 0.127; cleaved RNA product abundance [4]: 0.117
